Test results taken from the DeepSol protein solubility set.

Assay: soluble on expression in E. coli; label from the status in PepcDB or PDB records

With “EAVHRLDLILCNKTAYQEVFKPENISLRNKLRELCVKLMFLHPVDYGRKAEELLWRKVYYEVIQLIKTNKKHIHSRSTLECAYRTHLVAGIGFYQHLLLYIQSHYQLELQCCIDWTHVTDPLIGCKKPVSASGKEMDWAQMACHRCLVYLGDLSRYQNELAGVDTELLAERFYYQALSVAPQIGMPFNQLGTLAGSKYYNVEAMYCYLRCIQSEVSFEGAYGNLKRLYDKAAKMYHQLKKCETRKLSPGKKRCKDIKRLLVNFMYLQSLLQPKSSSVDSELTSLCQSVLEDFNLCLFYLPSSPNLSLASEDEEEYESGYAFLPDLLIFQMVIICLMCVHSLERAGSKQYSAAIAFTLALFSHLVNHVNIRLQAELEEGENPVPAFQSDGTDEPESKEPVEKEEEPDPEPPPVTPQVGEGRKSRKFSRLSCLRRRRHPPKVGDDSDLSEGFESDSSHDSARASEGSDSGSDKSLEGGGTAFDAETDSEMNSQESRSDLEDMEEEEGTRSPTLEPPRGRSEAPDSLNGPLGPSEASIASNLQAMSTQMFQTKRCFRLAPTFSNLLLQPTTNPHTSASHRPCVNGDVDKPSEPASEEGSESEGSESSGRSCRNERSIQEKLQVLMAEGLLPAVKVFLDWLRTNPDLIIVCAQSSQSLWNRLSVLLNLLPAAGELQESGLALCPEVQDLLEGCELPDLPSSLLLPEDMALRNLPPLRAAHRRFNFDTDRPLLSTLEESVVRICCIRSFGHFIARLQGSILQFNPEVGIFVSIAQSEQESLLQQAQAQFRMAQEEARRNRLMRDMAQLRLQLEVSQLEGSLQQPKAQSAMSPYLVPDTQALCHHLPVIRQLATSGRFIVIIPRTVIDGLDLLKKEHPGARDGIRYLEAEFKKGNRYIRCQKEVGKSFERHKLKRQDADAWTLYKILDSCKQLTLAQGAGEEDPSGMVTIITGLPLDNPSVLSGPMQAALQAAAHASVDIKNVLDFYKQWKEIG” the “soluble on expression in E. coli” value was “soluble”.

With “GMLELVGEYWEQLKITVVPVVAAAEDDDNEQHEEKAAEGEEKEEENGDEDEDEDEDEDDDDDDDEDEEEEEEVTDQLEDLREHFKNTEEGKALVHHYEECAERVKIQQQQPGYADLEHKEDCVEEFFHLQHYLDTATAPRLFDKLK” the “soluble on expression in E. coli” value was “soluble”.

With “MAHHHHHHMGTLEAQTQGPGSMFELSDLPYEGLEPYISSHLLDRHYNGHHKTYVDVLNKLVVGTEFEGLGNESLGDIVVKAHNSGSAGRAIFNNAAQIWNHDFYWQSMKPNGGGNPPEKLREMIEHSFGSVEGFNNAFTTSGLGQFGSGWVWLVYDEDAKALKVVSTANADSPLLTQGQLPLATMDVWEHAYYLDYLNLRKKYIDVFLEHLLNWDFVLGRLEDAGVL” the “soluble on expression in E. coli” value was “soluble”.

With “MSFKGFKVVMLILLSTQSYASKLASSIVCDSTIENPCIVQDSKTQFSPVIRYREVASIADVYGGNITGINKFHLSGSEQPSEKGWEAIAESISRKMGAETKKVIVLDLRQESHGYLNGRAITLVSAYNWINLGKSNSQSTLDQENWLAGLRSRKIVNGVLTVPQYVAKQYSQGKSMVVSTVKNEEYYVYKKGFDYYRIFISDHRAPLDSEVDALVALIKNNPEDTWYHVHCRGGKGRTTTVFAMFDMLKNADKVSFEEIIARQASIPPFYNLMVTNREIPELTPYYEQRLQFLIHFYEFARQSLMGYSGTWSEWKKLNI” the “soluble on expression in E. coli” value was “not soluble”.

With “MGSDKIHHHHHHVEYRLPAEGSNLVGENQYYVVPEGKLTLEQIASQFQLGLTNLLEANPGVDPFLPKPGSTLLIPHQLILPNAKREGVVINSAEMRLYYYPKGKNTVEVLPIGIGQIGKDTPENWVTTVQRKRANPTWTPTVNIRKSYAAKGITLPAVWPAGADNPMGLFALYVGNLYAVHGTNATFGIGLRVSSGCVRLRDEDIEHLYNSVPVGTRVEFINQPIKATEEPDGNRYLEVHEPLSRTQAEFDSLEPVALSFDKAMTRFVAHPDTDSFTLKRLLEQRTGMPTRINP” the “soluble on expression in E. coli” value was “not soluble”.

For “MGSDKIHHHHHHMEKIAVAENLRAYYFIKSGDKTTSIRAVDNVSLHFFENEVYGIAGESGCGKSTLLKVLFGEIKPPLKLVDGEVVFKLDGEEYRINSMSLDQLKKIRWKYVSYVPQGSMSVLNPVRKIRRIFLDVIEEHTSMSREEAFSRIESYFEALGLPVRVLDSYPHQLSGGMRQRVTIALATVLNPKVIFADEPTTALDVVVQRGVIQLLKKIHKEQKNTLVIVTHDMGVHAHLATRIGVMYAGRLIEEAETHEIFKNPLHPYTRFLINSLPRFGDRSRKEGTPGSPPSLANLPSGCPFHPRCPIADQICMEMEPDLIEVARNHKVACWKVGVER”, the “soluble on expression in E. coli” value was “not soluble”.

For “HITLNYLSKTLGMHQTINVILPEDKSYFDTNENAKPLKTMLLLHGLSSDTSSYMRYTSIERYANTHQLAVVMPNADHSFYSNMAYGHSYYDYILEVYDYVHQILPLSKKREDNFIAGHSMGGYGAIKFALTQSYRFSKAAMLSAPYDVSMIGQYQWYDFTPEAIVGNTQHVAGTSFDPYYLVEQAIDNGQALPQLYITCGTEDELYQGNIDFVNYLDEKGIPYQFKKAPGNHDYAFWDKAIEDVIDRF”, the “soluble on expression in E. coli” value was “not soluble”.

With “TSHHHHHMKKIEHKMVAVNGLNMHLAELGEGPTILFIHGFPELWYSWRHQMVYLAERGYRAVAPDLRGYGDTTGAPLNDPSKFSILHLVGDVVALLEAIAPNEEKVFVVAHDWGALIAWHLCLFRPDKVKALVNLSVHFSKRNPKMNVVEGLKAIFGEDHYISRFQVPGEIEAEFAPIGAKSVLKKILTYRDPAPFYFPKGKGLEAIPDAPVALSSWLSEEELDYYANKFEQTGFTGAVNYYRALPINWELTAPWTGAQVKVPTKFIVGEFDLVYHIPGAKEYIHNGGFKKDVPLLEEVVVLEGAAHFVSQERPHEISKHIYDFIQKF” the “soluble on expression in E. coli” value was “soluble”.

In the case of “SNTPRLSLRTIEPTDYPELAELMDLVFPDVGGSWPRLTIMDLIHQFPDGQICIEDNGKIVGAALTIKVDYNRFSLPHLYTDIITENNVIQNQVTGDAMYGLDVFVHPDYRGLRLGRRLYDARKELCRSKNFKAILAGGRIPNYHQYADELSVAEYIDKVKRRELHDPILSFQLANDFDVKRIMRGYLP”, the “soluble on expression in E. coli” value was “not soluble”.

For “MSLLKMYADKRGLKDIKSNMVMREFEEVFEKFKDWTEKIKQKYPNPDEILNLEKEEKWDFSDLFGEFLGDYRTVKSYHEFDKDNPYLPSDEFNKYFAAFSQIQEEIRKEKAEKKALEVQEEDLSNEVRKEPQIFSWEYGEGIQANLDYIFHLIKDLYNCDNEQDRQKVLDKIKTAIRTNPEIQVNEDILNEFIEDLGKSFEKEKLEEVWKTEGKLRECLKDFCKKKEESNKKKIINDFLVKGVFLVEWVADKQLNTAKKKGEYSPSWSDTEKLIWKEKSTNLPTMTEKDEDGNFKWRKLITDISEAFKNEGHHHHHH”, the “soluble on expression in E. coli” value was “soluble”.

In the case of “MVVFVASSRWDPSPDVIGQLCCLVSGGRSVPSTALKLGLSLSAAYRLAREYQLPVRVQTSTSASVTKSIETLWKQDVKPSDISTRLNVGTSVVYRIGIELGLWQRNPHGRRASATSRRCEYVMLRFGAMSRKDTAKVVGINPRETLDIDKGVTKLNGVGRVPCVPDEPDTELYKRLMQVVPYVDGRQAVPVEVIPQHAIDKRMSPR”, the “soluble on expression in E. coli” value was “not soluble”.

In the case of “MNILNIKEGQHYIAKIESHSFVDGEGVRCSVYVSGCPFQCKGCYNVKAQNFKYGEPFELEMLEEILDYCAPSYIEGLSILGGEPFCNLFITLQLVEAFRQRFGHTKTIWVWTGFLFEYLKQQDDARKSLLEHIDVLVDGMFIQHLYRPNLPYKGSLNQRVIDVQSSLQKEQVIEYLTKLEHHHHHH”, the “soluble on expression in E. coli” value was “not soluble”.

With “RSECMGFFRRLLGLSWISIPKLPKKERKNNHDESENESLGNGYDTGESENLSGYLNNSEYEDGPAGESADDPDDYIPPHKEEGENDSSQSIQMGSMTVELAQEEEKADEALLAEIKTDPRMDLASYKFPSVDLLTQYDLQQPPIDMNEIEENQKRIIATLDSFKIHVTPIKATVGPTVTLYEVAPDSGIKISRIRNLEDDIAMSLKAVGGIRIIAPMPGKGTIGIEVPNRKPQTVSMYSVLTSKKYQESDMDLPVALGKTITNEVFIFDLCKMPHLLIAGATGQGKSVGLNAMITSLLYKKHPAELKFVLVDPKMLEFAVYEAIERHYLAKLPDEDRAIVTDMTKVVPTLNSLCIEMDNRYRMLTEARVRNIKEYNDQIISGKLSRLHGHKFLPYIVLIVDEFADLIMTSGKEVERPITRIAQKARAAGIHMVVATQRPSTDIITGIIKANFPARIAFKVFSMIDSRTILDQPGANQLVGRGDMLFYQGKDTVRLQCAFLDTPECEAVTHHISLQESYTSAYELPEYVPEGEEGGPKAFNPQEKDPLFEEVARMVVNSQQGSTSNIQRKFNIGYNRAGRLMDQLEGAGIVSPQDGSKPRQVLIQDEMSLERLFETLR” the “soluble on expression in E. coli” value was “not soluble”.

With “GMSDLQSLQPKLLWQWFDQICAIPHPSYKEEQLAQFIINWAKTKGFFAERDEVGNVLIRKPATVGMENRKPVVLQAHLDMVPQANEGTNHNFDQDPILPYIDGDWVKAKGTTLGADNGIGMASALAVLESNDIAHPELEVLLTMTEERGMEGAIGLRPNWLRSEILINTDTEENGEIYIGCAGGENADLELPIEYQVNNFEHCYQVVLKGLRGGHSGVDIHTGRANAIKVLLRFLAELQQNQPHFDFTLANIRGGSIRNAIPRESVATLVFNGDITVLQSAVQKFADVIKAELALTEPNLIFTLEKVEKPQQVFSSQCTKNIIHCLNVLPNGVVRNSDVIENVVETSLSIGVLKTEDNFVRSTMLVRSLIESGKSYVASLLKSLASLAQGNINLSGDYPGWEPQSHSDILDLTKTIYAQVLGTDPEIKVIHAGLECGLLKKIYPTIDMVSIGPTIRNAHSPDEKVHIPAVETYWKVLTGILAHIPSR” the “soluble on expression in E. coli” value was “soluble”.

In the case of “MPSETLWEIAKAEVEKRGINGSEGDGAEIAEKFVFFIGSKNGGKTTIILRCLDRDEPPKPTLALEYTYGRRAKGHNTPKDIAHFWELGGGTSLLDLISIPITGDTLRTFSLVLVLDLSKPNDLWPTMENLLQATKSHVDKVIMKLGKTNAKAVSEMRQKIWNNMPKDHPQDHELIDPFPVPLVIIGSKYDVFQDFESEKRKVICKTLRFVAHYYGASLMFTSKSEALLLKIRGVINQLAFGIDKSKSICVDQNKPLFITAGLDSFGQIGSPPVPENDIGKLHAHSPMELWKKVYEKLFPPKSINTLKDIKDPARDPQYAENEVDEMRIQKDLELEQYKRSSSKSWKQIELDS”, the “soluble on expression in E. coli” value was “not soluble”.

For “MSLREYIKEGIKLAVTNIPEDVVSAIREALEREESKIAKYNLEMILKAIDISRKEGIPVCQDTGTPIFFVRTNGPINKIYDEIVKGVEIATREVPLRPNALHVLDGKVIGNVPEVHFEPGKETLISILMKGGGSENCTALFPLTPAEGLEGVKNKVIEHVQSCGGKPCPPIIVGIGIASPAEKAIILAKKALLRRISERHPNEKLAKFERELLEEINSLGIGPMGLGGRTTALDVKVEVETRHPASYIVGVVIQCWAHRRAFIKVSEGGVKIWQEGGSHHHHHH”, the “soluble on expression in E. coli” value was “soluble”.

For “MLEKVYVALIHYPIKGKDGSIISTAVTNLDVHDIARTARTYNLKGYYIVTNLRAQQDMVSKMLKFWREGFGSRYNPSRAESLKLVKLKSYLEDVLEDIESVEGERPLIFFTSAKKRENDISFEEGRRIIIETEKPVLILLGTGWGLPDEILEISDYVLEPIRAQSDFNHLSVRAAAAIIIDRLIGENYARRD”, the “soluble on expression in E. coli” value was “soluble”.

In the case of “VPGTVEVVFDKPEYRTGEEASALITFPEPVEDALLSLERDKVEATALLSKGADWLRLEKLNPTQYRVWIPVREEFSPNLTFSVLYTKGGDYSFQNAGIKVGMPQVEIDIATDKERYEPGETVTVTLATRFAGKPVSSHLTVSVVDEMVYALQAE”, the “soluble on expression in E. coli” value was “not soluble”.

For “MEGQQVILHLPLSQKGPFWTWEPSAPRTLLQVLQDPALKDLVLTCPTLPWHSLILRPQYEIQAIMHMRRTIVKIPSTLEVDVEDVTASSRHVHFIKPLLLSEVLAWEGPFPLSMEILEVPEGRPIFLSPWVGSLQKGQRLCVYGLASPPWRVLASSKGRKVPRHFLVSGGYQGKLRRRPREFPTAYDLLGAFQPGRPLRVVATKDCEGEREENPEFTSLAVGDRLEVLGPGQAHGAQGSDVDVLVCQRLSDQAGEDEEEECKEEAETQSGSCCPSTSLAVSWRRLEHHHHHH”, the “soluble on expression in E. coli” value was “not soluble”.
